Laboratory results from publication PMC3844076 (Nature, 2013).

Target: the molecule itself
Test: SEC

B1: EncM (as used for size exclusion chromatography) (enzyme, Streptomyces maritimus, UniProt Q9KHK2 1-464, looked up)
chain: MQFPQLDPATLAAFSAAFRGELIWPSDADYDEARRIWNGTIDRRPALIARCTSTPDVVAAVSFARKSGLLVAVRGGGHSMAGHSVCDGGIVIDLSLMNSIKVSRRLRRARAQGGCLLGAFDTATQAHMLATPAGVVSHTGLGGLVLGGGFGWLSRKYGLSIDNLTSVEIVTADGGVLTASDTENPDLFWAVRGGGGNFGVVTAFEFDLHRVGPVRFASTYYSLDEGPQVIRAWRDHMATAPDELTWALYLRLAPPLPELPADMHGKPVICAMSCWIGDPHEGERQLESILHAGKPHGLTKATLPYRALQAYSFPGAVVPDRIYTKSGYLNELSDEATDTVLEHAADIASPFTQLELLYLGGAVARVPDDATAYPNRQSPFVTNLAAAWMDPTEDARHTAWAREGYRALAGHLSGGYVNFMNPGEADRTREAYGAAKFERLQGVKAKYDPTNLFRLNQNIPPSSP
modifications: FAD covalently linked to His78 via the C8-methyl of the isoalloxazine ring
  stoichiometry N: 2
